The record followed here is patent US20190322730A1.

The chains are these.
B1: antibody 38G10 (antibody, V domains shown)
VH: EVQLQQSGPELVKPGDSVKMSCKASGYTFTDFYMDWVKQSHGKSLEWIGYIYPHNGGTTYNQNFTGKATLTVDKSSNTAYMELHSLTSEDSAVYYCARRGGFDFDYWGQGTTLTVSS
VL: NIVMTQSPKSMSLSVGERVTLRCKASENVDTYVSWYQQKPEQSPKLLIYGASNRYTGVPDRFTGSGSATEFTLTISSVQAEDLVGYHCGQSHSYPLTFGAGTKLELK
B2: antibody 3D8 (antibody, V domains shown)
VH: EIQLQQSGAELVKPGASVKISCKASGYSFTGYNMNWVKQSHGKSLEWIGNINPYYGSTNYNQKFKGKATLTVDKSSTTAYMQLDSLTSEDSAVYYCARGYYGGNYPFAYWGQGTLVTVSA
VL: DIQMTQSPASLSASVGETVTITCRASENIYSYLAWYQQKQGKSPQLLVYNAKTLAEGVPSRFSGSGSGTQFSLKINSLQPEDFGSYYCQHYYGTPYTFGGGSKVEIK
B3: antibody 63A3 (antibody, V domains shown)
VH: DVQLQESGPGLVKPSQSLSLTCSVTGYSITSGYYWNWIRQFPGNKLEWMGYIRYDGSNNYNPSLKNRISITRDTSKNQVFLKLNSVTPEDTATYYCARHYGYDGGAFDFWGQGTTLTVSS
VL: B2 VL with A25T, S31N, A34V, A55E, I75V, Y91H, Y96F, G100S, S102T, V104L
B4: antibody 38F5 (antibody, V domains shown)
VH: EVMLVESGGALVKPGGSLKLSCTASGFTFSNYAMSWVRQTPEKRLEWVAQTISSGGRYTYYPDSVKGRFTISRDNARNTLYLQMSSLRSEDTAMYYCVRRYYGNSYWYFDVWGAGTTVTVSS
VL: DIVMTQSPSSLSVSAGEKVTMNCKSSQSLLNSGNQKHYLTWYQQKPGQPPKLLIYGASTRGSGVPDRFTGSGSGTDFTLTISSVQAEDLAVYYCQNDHSYPYTFGGGTKLEIK
B5: antibody 62F2 (antibody, V domains shown)
VH: DVQLQESGPDLVKPSQSLSLTCTVTGYSITSGYSLHWIRQFPGNKLEWMGYIHYSGSTNYNPSLKSRISITRDTSKNQFFLKLNSVTSEDTATYHCARAWDYLDYWGQGTTLTVSS
VL: DIQMTQSPASLSASVGETVTITCRASENIYSQLAWYQQKQGKSPQLLVYDAKTLAEGVPSRFSGSGSDTQFSLKIISLQPEDFGRYYCHHHFGILYTFGGGTKLEMK
B6: antibody 3G8 (antibody, V domains shown)
VH: EIQLQQSGAELVKPGASVKISCMASGYSFTGYNMNWVKQSHGKGLEWIGNINPYYDSTSYNQKFKGKATLTVDKSSSTAYMQLNSLTSEDSAVYYCARENYDFVGFAYWGQGTLVTVSA
VL: QIVLSQSPAILSASPGEKVTMTCRASSSVSYMHWFQQKPGSSPKPWIYVTSNLASGVPPRFSGSGSGTSYSLTISRVEAEDAATYYCQQWSTNPLTFGAGTKLELK

Changes are numbered by the printed parent chain.

C3b (human), sequence (P01024 23-667 limits assumed, chain 1 of 2): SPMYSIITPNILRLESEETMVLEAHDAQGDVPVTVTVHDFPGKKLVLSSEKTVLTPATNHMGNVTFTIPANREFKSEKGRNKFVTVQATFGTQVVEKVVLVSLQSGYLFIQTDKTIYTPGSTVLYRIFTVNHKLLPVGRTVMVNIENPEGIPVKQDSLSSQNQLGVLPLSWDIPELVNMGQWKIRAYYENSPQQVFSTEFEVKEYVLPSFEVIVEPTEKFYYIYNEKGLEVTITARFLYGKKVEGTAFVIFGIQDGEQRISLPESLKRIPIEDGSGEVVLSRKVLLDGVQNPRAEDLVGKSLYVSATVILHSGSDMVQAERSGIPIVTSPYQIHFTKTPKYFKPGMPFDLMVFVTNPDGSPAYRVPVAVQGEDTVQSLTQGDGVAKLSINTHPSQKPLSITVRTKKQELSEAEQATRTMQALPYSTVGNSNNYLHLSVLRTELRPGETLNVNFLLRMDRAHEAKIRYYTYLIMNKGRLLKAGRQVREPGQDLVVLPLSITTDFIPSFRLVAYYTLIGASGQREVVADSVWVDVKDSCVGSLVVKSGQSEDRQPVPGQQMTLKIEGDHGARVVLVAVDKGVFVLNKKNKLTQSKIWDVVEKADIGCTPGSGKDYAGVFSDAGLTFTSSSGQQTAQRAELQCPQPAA
C3b (human), sequence (P01024 749-1663 limits assumed, chain 2 of 2): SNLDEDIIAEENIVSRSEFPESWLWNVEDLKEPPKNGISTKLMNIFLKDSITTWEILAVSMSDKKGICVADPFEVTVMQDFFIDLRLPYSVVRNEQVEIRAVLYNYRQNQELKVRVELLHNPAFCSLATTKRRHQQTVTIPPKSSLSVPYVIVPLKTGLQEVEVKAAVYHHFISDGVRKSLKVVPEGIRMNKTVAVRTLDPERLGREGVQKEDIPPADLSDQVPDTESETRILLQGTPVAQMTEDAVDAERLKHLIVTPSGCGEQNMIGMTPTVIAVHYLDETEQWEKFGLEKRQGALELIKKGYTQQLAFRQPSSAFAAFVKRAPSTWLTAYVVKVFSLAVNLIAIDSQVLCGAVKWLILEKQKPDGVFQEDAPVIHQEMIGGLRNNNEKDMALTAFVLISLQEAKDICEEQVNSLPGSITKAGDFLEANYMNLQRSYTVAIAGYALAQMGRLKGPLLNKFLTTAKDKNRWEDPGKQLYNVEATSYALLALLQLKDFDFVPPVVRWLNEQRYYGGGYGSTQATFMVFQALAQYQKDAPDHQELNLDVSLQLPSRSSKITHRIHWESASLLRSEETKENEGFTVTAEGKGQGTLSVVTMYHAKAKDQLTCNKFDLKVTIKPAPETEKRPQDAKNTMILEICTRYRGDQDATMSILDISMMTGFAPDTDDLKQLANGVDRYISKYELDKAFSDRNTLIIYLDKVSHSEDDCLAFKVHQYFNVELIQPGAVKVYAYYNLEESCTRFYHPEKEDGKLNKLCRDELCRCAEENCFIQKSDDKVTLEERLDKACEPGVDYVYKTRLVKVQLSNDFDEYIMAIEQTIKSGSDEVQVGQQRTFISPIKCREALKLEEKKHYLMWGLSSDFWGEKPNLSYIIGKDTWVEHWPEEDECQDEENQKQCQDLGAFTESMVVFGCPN

The first assay concerns the target C3b (human) (UniProt P01024). The assay can be described thus: binding screen of Example 5; method and unit not stated.
B1 yielded a binding relative to negative control mIgG2 of 0.06.

In another assay the target is C3c (UniProt P01024). The description is as above.
Molecule B1 showed a binding relative to negative control mIgG2 of 0.13.
Consider B2, for which the binding relative to negative control mIgG2 is 0.17.
Turning to B3, the binding relative to negative control mIgG2 came to 0.55.
For the molecule B4, the binding relative to negative control mIgG2 amounted to 0.45.
B5 returned a binding relative to negative control mIgG2 of 0.43.
The molecule B6 returned a binding relative to negative control mIgG2 of 0.22.

In the next assay the target is iC3b (UniProt P01024). The assay is described as above.
B1 gave a binding relative to negative control mIgG2 of 0.06.
In turn, B2 gave a binding relative to negative control mIgG2 of 0.29.
The molecule B3 returned a binding relative to negative control mIgG2 of 0.72.
B4 had a binding relative to negative control mIgG2 of 0.45.
B5 returned a binding relative to negative control mIgG2 of 0.49.
Same read-out and setting: for B6 the value was 0.25.
